From patent US20220177587A1, “METHODS AND USES OF VARIANT CD80 FUSION PROTEINS AND RELATED CONSTRUCTS” (Alpine Immune Sciences, Inc., priority 2018, published 2022)

What was measured:
[1] = tested on: human pan T cells; test: Anti-CD3 coimmobilization assay, IFN-gamma; format: cell-based; settings: Table E32; variant ECD-Fc coimmobilized with anti-CD3; culture supernatant
In short: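 IFN-gamma in 3-day culture supernatants, quantified by ELISA, reflects costimulation. Human pan T cells or BC3 clone (100,000/well, Ex-Vivo 15) were placed on wells pre-adsorbed overnight with rCD80.Fc variants (1–80 nM) together with anti-CD3 OKT3 (1 nM or 4 nM), unbound protein removed.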

[2] = tested on: allogeneic CD4+ T cells; test: Mixed Lymphocyte Reaction (MLR), IFN-gamma; format: cell-based, human; settings: Table E32; variant ECD-Fc in MLR assay; culture supernatant
Method: Soluble rCD80.Fc bioactivity was tested in a human Mixed Lymphocyte Reaction (MLR). Human primary dendritic cells (DC) were generated by culturing monocytes isolated from PBMC (BenTech Bio, USA) in vitro for 7 days with 500U/ml rIL-4 (R&D Systems, USA) and 250 U/ml rGM-CSF (R&D Systems, USA) in Ex-Vivo 15 media (Lonza, Switzerland). 10,000 matured DC and 100,000 purified allogeneic CD4+ T cells (BenTech Bio, USA) were co-cultured with variant CD80 Fc fusion proteins and controls in 96 well round bottom plates in 200 μl final volume of Ex-Vivo 15 media. On day 5, IFN-gamma secretion in culture supernatants was analyzed using the Human IFN-gamma Duoset ELISA kit (R&D Systems, USA). Optical density was measured by VMax ELISA Microplate Reader (Molecular Devices, USA) and quantitated against titrated rIFN-gamma standard included in the IFN-gamma Duo-set kit (R&D Systems, USA).

Row | Molecule | Coimmobilization with anti CD3 IFN-gamma [1] | MLR IFN-gamma levels [2]
1 | L70Q/A91G/N144D (protein, CD80 v122 ECD) VIHVTKEVKEVATLSCGHNVSVEELAQTRIYWQKEKKMVLTMMSGDMNIWPEYKNRTIFDITNNLSIVIQALRPSDEGTYECVVLKYEKDGFKREHLAEVTLSVKADFPTPSISDFEIPTSNIRRIICSTSGGFPEPHLSWLEDGEELNAINTTVSQDPETELYAVSSKLDFNMTTNHSFMCLIKYGHLRVNQTFNWNTTKQEHFPDN | 93 pg/mL | 716 pg/mL
2 | L70Q/A91G/I118A/T120S/T130A/K169E (protein, CD80 v123 ECD) VIHVTKEVKEVATLSCGHNVSVEELAQTRIYWQKEKKMVLTMMSGDMNIWPEYKNRTIFDITNNLSIVIQALRPSDEGTYECVVLKYEKDGFKREHLAEVTLSVKADFPTPSISDFEAPSSNIRRIICSASGGFPEPHLSWLENGEELNAINTTVSQDPETELYAVSSELDFNMTTNHSFMCLIKYGHLRVNQTFNWNTTKQEHFPDN | 86 pg/mL | 741 pg/mL
3 | S44P/L70Q/A91G/T130A (protein) VIHVTKEVKEVATLSCGHNVSVEELAQTRIYWQKEKKMVLTMMPGDMNIWPEYKNRTIFDITNNLSIVIQALRPSDEGTYECVVLKYEKDGFKREHLAEVTLSVKADFPTPSISDFEIPTSNIRRIICSASGGFPEPHLSWLENGEELNAINTTVSQDPETELYAVSSKLDFNMTTNHSFMCLIKYGHLRVNQTFNWNTTKQEHFPDN | 142 pg/mL | 854 pg/mL
4 | V20L/L70Q/A91S/I118V/T120S/T130A (protein, CD80 v127 ECD) VIHVTKEVKEVATLSCGHNLSVEELAQTRIYWQKEKKMVLTMMSGDMNIWPEYKNRTIFDITNNLSIVIQALRPSDEGTYECVVLKYEKDGFKREHLAEVTLSVKADFPTPSISDFEVPSSNIRRIICSASGGFPEPHLSWLENGEELNAINTTVSQDPETELYAVSSKLDFNMTTNHSFMCLIKYGHLRVNQTFNWNTTKQEHFPDN | 195 pg/mL | 710 pg/mL
5 | L70Q/A91G/T130A (protein, CD80 v2 ECD) VIHVTKEVKEVATLSCGHNVSVEELAQTRIYWQKEKKMVLTMMSGDMNIWPEYKNRTIFDITNNLSIVIQALRPSDEGTYECVVLKYEKDGFKREHLAEVTLSVKADFPTPSISDFEIPTSNIRRIICSASGGFPEPHLSWLENGEELNAINTTVSQDPETELYAVSSKLDFNMTTNHSFMCLIKYGHLRVNQTFNWNTTKQEHFPDN | 99 pg/mL | 752 pg/mL
6 | L70Q/A91G/I118V/T120S/T130A/K169E (protein, CD80 v125 ECD) VIHVTKEVKEVATLSCGHNVSVEELAQTRIYWQKEKKMVLTMMSGDMNIWPEYKNRTIFDITNNLSIVIQALRPSDEGTYECVVLKYEKDGFKREHLAEVTLSVKADFPTPSISDFEVPSSNIRRIICSASGGFPEPHLSWLENGEELNAINTTVSQDPETELYAVSSELDFNMTTNHSFMCLIKYGHLRVNQTFNWNTTKQEHFPDN | 104 pg/mL | 741 pg/mL
7 | V4M/L70Q/A91G/I118V/T120S/T130A/K169E (protein, CD80 v124 ECD) VIHMTKEVKEVATLSCGHNVSVEELAQTRIYWQKEKKMVLTMMSGDMNIWPEYKNRTIFDITNNLSIVIQALRPSDEGTYECVVLKYEKDGFKREHLAEVTLSVKADFPTPSISDFEVPSSNIRRIICSASGGFPEPHLSWLENGEELNAINTTVSQDPETELYAVSSELDFNMTTNHSFMCLIKYGHLRVNQTFNWNTTKQEHFPDN | 139 pg/mL | 991 pg/mL
